Data published in publication PMC2637153.

What was measured:
[1] = biological target: Allochromatium vinosum DsrC Cys100Ser (Allochromatium vinosum); test: SEC
[2] = biological target: Allochromatium vinosum DsrC, wild type, recombinant with amino-terminal His tag (Allochromatium vinosum); test: SEC

Substance | stoichiometry N [1] | stoichiometry N [2]
Allochromatium vinosum DsrC Cys100Ser (natural protein) | 2 | –
Allochromatium vinosum DsrC, wild type, recombinant with amino-terminal His tag (natural protein) | – | 2
